Laboratory results: article PMC12440737 (2025)

Target: T1, IL-6 receptor (Homo sapiens, UniProt P08887)
T1 chain: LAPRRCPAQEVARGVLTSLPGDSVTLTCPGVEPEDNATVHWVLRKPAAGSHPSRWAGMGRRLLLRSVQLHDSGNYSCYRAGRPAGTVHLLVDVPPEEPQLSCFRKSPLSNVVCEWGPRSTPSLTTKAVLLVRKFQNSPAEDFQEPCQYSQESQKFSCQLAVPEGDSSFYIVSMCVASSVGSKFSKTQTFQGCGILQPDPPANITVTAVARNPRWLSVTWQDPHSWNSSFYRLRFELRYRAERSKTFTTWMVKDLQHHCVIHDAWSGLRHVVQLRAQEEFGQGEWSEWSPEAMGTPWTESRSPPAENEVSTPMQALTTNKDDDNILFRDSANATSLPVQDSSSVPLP
Test: SPR

Kd: 9.9 nM
B1: Tocilizumab (antibody, V domains shown)
VH: QVQLQESGPGLVRPSQTLSLTCTVSGYSITSDHAWSWVRQPPGRGLEWIGYISYSGITTYNPSLKSRVTMLRDTSKNQFSLRLSSVTAADTAVYYCARSLARTTAMDYWGQGSLVTVSS
VL: DIQMTQSPSSLSASVGDRVTITCRASQDISSYLNWYQQKPGKAPKLLIYYTSRLHSGVPSRFSGSGSGTDFTFTISSLQPEDIATYYCQQGNTLPYTFGQGTKVEIK
